Test results reported in patent publication US7026443.

What follows are binders tested against HLA-A*0301 (human). Conditions: not given.
Work on NSNAAAFLK (modifications not checked) [HPV33 E1 379 peptide … (SEQ ID NO: 36047)] yielded a relative binding ratio (IC50 of standard peptide / IC50 of test peptide) of 0.0057.
SMSQWIKYR (modifications not checked) [HPV16 E1 421 …] gave a binding affinity ratio (IC50 of standard peptide / IC50 of test peptide) of 0.69.
SVAALYWYR (modifications not checked) [HPV45 E1 308 peptide … (SEQ ID NO: 37559)] showed a relative binding ratio (IC50 of standard peptide / IC50 of test peptide) of 2.9.
With ALLRYKCGK (modifications not checked) [HPV18 E1 peptide … (position 284, 9 amino acids)] the binding affinity ratio (IC50 of standard peptide / IC50 of test peptide) was 0.09.
Work on CTELQTTIH (modifications not checked) [HPV16 E6 position 23 peptide …] yielded a binding affinity ratio (IC50 of the standard peptide / IC50 of the test peptide) of 0.0002.
In the case of LIRCINCQK (modifications not checked) [… (HPV16 E6, position 107)], the relative binding ratio (IC50 of standard peptide / IC50 of test peptide) (ratio to standard peptide) is reported as 0.0025.
In the case of LLIRCINCQK (modifications not checked) [… (HPV16 E6, position 106)], the relative binding ratio (IC50 of standard peptide / IC50 of test peptide) (ratio to standard peptide) is reported as 0.021.
For SVAALYWYR (modifications not checked) [HPV18 E1 322-330 peptide …], the binding affinity ratio relative to standard peptide (IC50 standard / IC50 test) was 2.9.
For IILECVYCK (modifications not checked) [… (HPV16 E6, position 33)], the relative binding ratio (IC50 of standard peptide / IC50 of test peptide) (ratio to standard peptide) was 0.0016.
HDIILECVY (modifications not checked) [… (HPV16 E6, position 31)] gave a relative binding ratio (IC50 of standard peptide / IC50 of test peptide) (ratio to standard peptide) of 0.0002.
Binder KISEYRHYCY (modifications not checked) [… (HPV16 E6, position 79)] has a relative binding ratio (IC50 of standard peptide / IC50 of test peptide) (ratio to standard peptide) of 0.0043.
For ALLRYKCGK (modifications not checked) [HPV45 E1 270 … (SEQ ID NO: 37205)], the relative binding ratio (IC50 of standard peptide / IC50 of test peptide) was 0.09.
Binder VFEFAFKDLF (modifications not checked) [HPV18 E6 peptide … (position 44, 10 amino acids)] has a relative binding ratio (IC50 of standard peptide / IC50 of test peptide) of 0.0001.
Work on FITFLGALK (modifications not checked) [HPV18 E1 460 …] yielded a binding affinity ratio (IC50 of standard peptide / IC50 of test peptide) of 0.032.
With LVRNFKSDK (modifications not checked) [… (HPV18 E1, position 229, 9 amino acids)] the binding affinity ratio (IC50 of standard peptide / IC50 of test peptide) was 0.0005.
CATMCKHYR (modifications not checked) [HPV18 E1 peptide … (position 412, 9 amino acids)] was tested, and the binding affinity ratio (IC50 of standard peptide / IC50 of test peptide) was 0.0012.
Work on GLSFTDLVR (modifications not checked) [HPV45 E1 peptide … (position 209, 9 amino acids)] yielded a relative binding ratio (IC50 of standard peptide / IC50 of test peptide) of 0.0009.
TTLEQQYNK (modifications not checked) [… (HPV16 E6, position 93)] was tested, and the relative binding ratio (IC50 of standard peptide / IC50 of test peptide) (ratio to standard peptide) was 0.01.
With NSNAAAFLK (modifications not checked) [HPV45 E1 peptide … (position 379, 9 amino acids)] the relative binding ratio (IC50 of standard peptide / IC50 of test peptide) was 0.0057.
IAQLKDLLK (modifications not checked) [HPV18 E1 198 …] gave a binding affinity ratio (IC50 of standard peptide / IC50 of test peptide) of 0.0003.
With DIILECVYCK (modifications not checked) [HPV16 E6 position 32 peptide …] the binding affinity ratio (IC50 of the standard peptide / IC50 of the test peptide) was 0.0065.
Binder DCATMCRHYK (modifications not checked) [HPV16 E1 peptide … (position 404, 10 amino acids)] has a relative binding ratio (IC50 of standard peptide / IC50 of test peptide) (ratio to standard peptide) of 0.0044.
Work on GTTLEQQYNK (modifications not checked) [HPV16 E6 position 92 peptide …] yielded a binding affinity ratio (IC50 of the standard peptide / IC50 of the test peptide) of 0.0002.
RFHNIAGHY (modifications not checked) [HPV18 E6 peptide … (position 126, 9 amino acids)] gave a relative binding ratio (IC50 of standard peptide / IC50 of test peptide) of 0.0005.
RFHNIAGHYR (modifications not checked) [HPV18 E6 peptide … (position 126, 10 amino acids)] was tested, and the relative binding ratio (IC50 of standard peptide / IC50 of test peptide) was 0.0023.
For FLKSNSQAK (modifications not checked) [HPV31 E1 372 … (A03 motif peptide)], the relative binding ratio (IC50 of standard peptide / IC50 of test peptide) (ratio to standard peptide) was 0.0013.
Work on QMNMSQWIR (modifications not checked) [HPV18 E1 426-434 peptide …] yielded a binding affinity ratio relative to standard peptide (IC50 standard / IC50 test) of 0.0011.
Binder NSNAAAFLK (modifications not checked) [… (HPV18 E1, position 393, 9 amino acids)] has a binding affinity ratio (IC50 of standard peptide / IC50 of test peptide) of 0.0057.
MLIQPPKLR (modifications not checked) [HPV31 E1 peptide … (position 285, 9 amino acids)] gave a relative binding ratio (IC50 of standard peptide / IC50 of test peptide) (ratio to standard peptide) of 0.0005.
LVRNFKSDK (modifications not checked) [HPV45 E1 215-223 peptide … (SEQ ID NO: 37448)] showed a relative binding ratio (IC50 of the standard peptide / IC50 of the test peptide) of 0.0005.
MLIQPPKLR (modifications not checked) [… (HPV18 E1, position 312, 9 amino acids)] gave a binding affinity ratio (IC50 of standard peptide / IC50 of test peptide) of 0.0005.
With KFYSKISEYR (modifications not checked) the relative binding ratio (IC50 of standard peptide / IC50 of test peptide) (ratio to standard peptide) was 0.0067.
Binder NMSQWIRFR (modifications not checked) [… (HPV18 E1, position 428, 9 amino acids)] has a binding affinity ratio (IC50 of standard peptide / IC50 of test peptide) of 0.054.
In the case of CVYCKQQLLR (modifications not checked) [HPV16 E6 position 37 peptide …], the binding affinity ratio (IC50 of the standard peptide / IC50 of the test peptide) is reported as 0.0001.
Work on TGLYNLLIR (modifications not checked) [HPV18 E6 peptide … (position 96, 9 amino acids)] yielded a relative binding ratio (IC50 of standard peptide / IC50 of test peptide) of 0.0005.
For GLSFTDLVR (modifications not checked) [HPV18 E1 223 …], the binding affinity ratio (IC50 of standard peptide / IC50 of test peptide) was 0.0009.
With TAAALYWYK (modifications not checked) [HPV16 E1 315 …] the binding affinity ratio (IC50 of standard peptide / IC50 of test peptide) was 0.78.
For FLKSNSQAK (modifications not checked) [HPV33 E1 385 peptide … (SEQ ID NO: 35888)], the relative binding ratio (IC50 of standard peptide / IC50 of test peptide) was 0.0013.
VVYRDSIPH (modifications not checked) [HPV18 E6 peptide … (position 54, 9 amino acids)] showed a relative binding ratio (IC50 of standard peptide / IC50 of test peptide) of 0.12.

Same assay, conditions: remark: other sources report otherwise
Work on KFYSKISEY (modifications not checked) yielded a relative binding ratio (IC50 of standard peptide / IC50 of test peptide) (ratio to standard peptide) of 0.0015.

Each binder was assayed against HLA-A*1101 (human). Conditions: not given.
MLIQPPKLR (modifications not checked) [HPV31 E1 285 … (SEQ ID NO: 41814)] gave a relative binding ratio (IC50 of standard peptide / IC50 of test peptide) of 0.0014.
LVRNFKSDK (modifications not checked) [HPV45 E1 215 peptide … (SEQ ID NO: 43696)] showed a relative binding ratio (IC50 of standard peptide / IC50 of test peptide) of 0.0002.
With GLSFTDLVR (modifications not checked) [HPV45 E1 209 … (SEQ ID NO: 43622)] the relative binding ratio (IC50 of standard peptide / IC50 of test peptide) was 0.0025.
For NSNAAAFLK (modifications not checked) [HPV33 E1 379 peptide … (A11 motif peptide, 9 amino acids)], the relative binding ratio (IC50 of standard peptide / IC50 of test peptide) was 0.37.

Same assay, conditions: scale: ratio
Binder SVAALYWYR (modifications not checked) [HPV45 E1 308 peptide … (SEQ ID NO: 43764)] has a binding affinity ratio relative to standard peptide (A*1101) of 8.8.
NSNAAAFLK (modifications not checked) [HPV45 E1 379 peptide … (SEQ ID NO: 43719)] gave a binding affinity ratio relative to standard peptide (A*1101) of 0.37.
